The target in this experiment is T1, recombinant human wild-type macrophage migration inhibitory factor (MIF) (human), P14174.
T1 chain: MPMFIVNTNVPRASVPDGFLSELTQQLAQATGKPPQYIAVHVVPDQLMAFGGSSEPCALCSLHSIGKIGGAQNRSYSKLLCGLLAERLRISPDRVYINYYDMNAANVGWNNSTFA
The experiment is described as follows: SEC-MALS; 100 uM MIF (WT or C80W) in 20 mM phosphate buffer, with or without 100 uM PAV-174; TSKgel G2000SWXL, 0.5 mL/min, 25 C; UV 280 nm and miniDawn Treos light scattering. Conditions: remark: other sources report otherwise.

B1: recombinant human wild-type macrophage migration inhibitory factor (MIF), P14174 1-115 (natural protein)
chain: T1 chain
As for B1, the stoichiometry N was found to be 3.

(Values after article PMC12866179, “Oxidized MIF is an Alzheimer’s disease drug target relaying external risk factors to tau pathology” (Cell Reports Medicine, 2025).)
